Test results taken from publication PMC4658334, “Reassessment of MxiH subunit orientation and fold within native Shigella T3SS needles using surface labelling and solid-state NMR” (Journal of Structural Biology, 2015).

Columns and labels:
[1] = target: the molecule itself; experiment: negative-stain electron microscopy of purified needles; purified needle preparations, about 0.1 μg/ml, on carbon-coated grids, stained with 1% phosphotungstic acid pH 7; self-association of the subunit into the needle polymer
[2] = target: the molecule itself; experiment: solid-state NMR; 5-7 mg of uniformly 13C,15N labelled natively grown needles packed in a 1.9 mm rotor; 20.0 T, 18 kHz MAS; self-association of the subunit into the needle polymer

| Protein | binding result [1] | binding result [2] |
| --- | --- | --- |
| MxiH L32C (natural protein, MxiH, needle subunit of the T3SS, Shigella flexneri, with leucine 32 changed to cysteine; cloned into pACT3 via NdeI and HindIII; Printed mass of the unlabelled subunit is 9123.5 Da; source: S. flexneri, expressed from pACT3 with 200 μM IPTG; needles purified) MSVTVPNDDWTLSSLSETFDDGTQTLQGELTCALDKLAKNPSNPQLLAEYQSKLSEYTLYRNAQSNTVKVIKDVDAAIIQNFR | binds | – |
| MxiH V68C (natural protein, MxiH, needle subunit of the T3SS, Shigella flexneri, with valine 68 changed to cysteine; gene synthesized and cloned into pACT3 via NdeI and HindIII; Printed mass of the unlabelled subunit is 9137.5 Da; source: S. flexneri, expressed from pACT3 with 200 μM IPTG; needles purified) MSVTVPNDDWTLSSLSETFDDGTQTLQGELTLALDKLAKNPSNPQLLAEYQSKLSEYTLYRNAQSNTCKVIKDVDAAIIQNFR | binds | – |
| MxiH, needle subunit of the Shigella flexneri type III secretion system (wild type, serotype 5) (natural protein, uniformly 13C,15N labelled, MxiH, needle subunit of the T3SS, Shigella flexneri serotype 5; expressed from pACT3mxiH; arranged as a helical polymer (needle); Helical polymer; also called WT MxiH; native MxiH needles; source: S. flexneri ΔmxiH (pACT3mxiH), 200 μM IPTG, M9-type minimal medium; in vivo assembled needles shaved from the bacterial surface and purified) MSVTVPNDDWTLSSLSETFDDGTQTLQGELTLALDKLAKNPSNPQLLAEYQSKLSEYTLYRNAQSNTVKVIKDVDAAIIQNFR | – | binds |
